Publication PMC3135172

Molecular target: GST-tagged BPTF PHD-bromodomain (human)
Assay: pull-down

H4K16ac and H3K4me3 modified mononucleosome (from UniProt P62805 1-103) (complex)
fold enhancement of binding over mononucleosomes with only H3K4me3: 2 to 3 fold
